Experimental data from patent US20110300138A1 (published 2011).

Columns and labels:
[1] = target: thyroid stimulating hormone receptor (TSHR), full length human TSHR (human) (UniProt P16473); experiment: TSH-biotin competition ELISA, TSHR coated wells; negative control, 0.1 µg/mL in HBD serum
[2] = target: thyroid stimulating hormone receptor (TSHR), full length human TSHR (human) (UniProt P16473); experiment: TSH-biotin competition ELISA, TSHR coated wells; negative control, 0.01 µg/mL in HBD serum
[3] = target: TSH receptor (TSHR) coated on tubes (human) (UniProt P16473); experiment: inhibition of 125I-K1-70 IgG binding to TSHR coated tubes; negative control 10 µg/mL in assay buffer
[4] = target: human thyroid stimulating hormone receptor (TSHR), full length (human) (UniProt P16473); experiment: 125I-K1-70 Fab (competitor) binding to TSHR coated tubes; negative control MAb 100 µg/mL in assay buffer
[5] = target: human TSH receptor (full length) coated on ELISA plate wells (human) (UniProt P16473); experiment: TSH-biotin binding inhibition ELISA, TSHR coated wells; 0.1 µg/mL in HBD serum pool; negative control MAb
[6] = target: human thyroid stimulating hormone receptor (TSHR), full length (human) (UniProt P16473); experiment: 125I-K1-70 Fab (competitor) binding to TSHR coated tubes; negative control MAb 0.001 µg/mL in assay buffer
[7] = target: TSHR (full length) coated on tubes (human) (UniProt P16473); experiment: inhibition of 125I-K1-18 Fab (competitor) binding to TSHR coated tubes; negative control 0.01 µg/mL in assay buffer
[8] = target: TSH receptor (TSHR) coated on tubes (human) (UniProt P16473); experiment: inhibition of 125I-K1-70 IgG binding to TSHR coated tubes; negative control 100 µg/mL in HBD serum pool; duplicate determination
[9] = target: TSH receptor (TSHR), full length human, coated on tubes (human) (UniProt P16473); experiment: inhibition of 125I-K1-18 IgG binding to TSHR coated tubes; competitor 125I-K1-18 IgG; negative control sample at 0.1 µg/mL in assay buffer
[10] = target: TSH receptor (full length human TSHR) (human) (UniProt P16473); experiment: competition ELISA: inhibition of M22 Fab-peroxidase (competitor) binding to TSHR coated wells; negative control at 0.01 µg/mL diluted in HBD serum pool
[11] = target: TSH receptor (TSHR), full length human, coated on tubes (human) (UniProt P16473); experiment: inhibition of 125I-K1-18 IgG binding to TSHR coated tubes; competitor 125I-K1-18 IgG; negative control sample at 10 µg/mL in HBD serum; mean of duplicate
[12] = target: thyroid stimulating hormone receptor (TSHR), full length human TSHR (human) (UniProt P16473); experiment: TSH-biotin competition ELISA, TSHR coated wells; 10 µg/mL in HBD serum
[13] = target: TSHR (full length) coated on tubes (human) (UniProt P16473); experiment: inhibition of 125I-K1-18 Fab (competitor) binding to TSHR coated tubes; test sample 10 µg/mL in HBD serum
[14] = target: TSH receptor (TSHR), full length human, coated on tubes (human) (UniProt P16473); experiment: inhibition of 125I-K1-18 IgG binding to TSHR coated tubes; competitor 125I-K1-18 IgG; sample at 10 µg/mL in assay buffer
[15] = target: TSH receptor (full length human TSHR) (human) (UniProt P16473); experiment: competition ELISA: inhibition of M22 Fab-peroxidase (competitor) binding to TSHR coated wells; test sample at 100 µg/mL diluted in assay buffer
[16] = target: TSH receptor (full length human TSHR) (human) (UniProt P16473); experiment: competition ELISA: inhibition of M22 Fab-peroxidase (competitor) binding to TSHR coated wells; test sample at 0.1 µg/mL diluted in HBD serum pool
[17] = target: thyroid stimulating hormone receptor (TSHR), full length, coated on tubes (human) (UniProt P16473); experiment: inhibition of 125I-TSH binding, TSHR coated tubes; antibody 0.001 µg/mL in assay buffer; mean of duplicate
[18] = target: human thyroid stimulating hormone receptor (TSHR), full length (human) (UniProt P16473); experiment: 125I-K1-18 Fab competition, TSHR coated tubes; 0.1 µg/mL in HBD
[19] = target: human TSH receptor (full length) coated on ELISA plate wells (human) (UniProt P16473); experiment: TSH-biotin binding inhibition ELISA, TSHR coated wells; 1 µg/mL in HBD serum pool
[20] = target: human TSH receptor (full length) coated on ELISA plate wells (human) (UniProt P16473); experiment: TSH-biotin binding inhibition ELISA, TSHR coated wells; 100 µg/mL in assay buffer
[21] = target: thyroid stimulating hormone receptor (TSHR), full length, coated on tubes (human) (UniProt P16473); experiment: inhibition of 125I-TSH binding, TSHR coated tubes; antibody 0.01 µg/mL in HBD serum pool
[22] = target: TSH receptor (TSHR) coated on tubes (human) (UniProt P16473); experiment: inhibition of 125I-K1-70 IgG binding to TSHR coated tubes; sample 0.1 µg/mL in HBD serum pool
[23] = target: thyroid stimulating hormone receptor (full length human TSHR) (human) (UniProt P16473); experiment: ELISA, inhibition of TSH-biotin binding to TSHR coated wells; 1 µg/mL, diluted in HBD serum pool
[24] = target: thyroid stimulating hormone receptor (full length human TSHR) (human) (UniProt P16473); experiment: ELISA, inhibition of TSH-biotin binding to TSHR coated wells; 10 µg/mL, diluted in HBD serum pool
[25] = target: human TSH receptor (full length) coated on ELISA plate wells (human) (UniProt P16473); experiment: TSH-biotin binding inhibition ELISA, TSHR coated wells; 0.1 µg/mL in assay buffer + 100 µg/mL 5B3 IgG
[26] = target: thyroid stimulating hormone receptor (full length human TSHR) (human) (UniProt P16473); experiment: ELISA: inhibition of M22 Fab-peroxidase (competitor) binding to TSHR coated wells; 10 µg/mL, diluted in assay buffer
[27] = target: thyroid stimulating hormone receptor (full length human TSHR) (human) (UniProt P16473); experiment: ELISA: inhibition of M22 Fab-peroxidase (competitor) binding to TSHR coated wells; 1 µg/mL, diluted in HBD serum pool

In the case of 5B3 IgG (antibody), the Inhibition of binding (%) [1] is reported as -1.2%, the Inhibition of binding (%) [2] is reported as -5.1% and the Inhibition of binding (%) [3] is reported as -2.1%. It also gave an Inhibition of binding (%) [4] of 1.4%, a % inhibition of TSH-biotin binding [5] of 8.6% and an Inhibition of binding (%) [6] of -1.8%. The Inhibition of binding (%) [7] was 0%, the Inhibition of binding (%) [8] was 1.1% and the Inhibition of binding (%) [9] was -4.8%. For the same molecule, the Inhibition of binding (%) [10] was 4.3% and the Inhibition of binding (%) [11] was -0.1%.

Work on 9D33 IgG (antibody) yielded an Inhibition of binding (%) [12] of 83.2%, an Inhibition of binding (%) [13] of 73.9% and an Inhibition of binding (%) [14] of 63.2%. The Inhibition of binding (%) [15] was 64.1% and the Inhibition of binding (%) [16] was 24.1%.

Molecule M22 IgG (antibody) has an Inhibition of binding (%) [17] of 1.5%.

B1: 5C9 IgG (antibody, from another filing, V domains shown)
VH: EVQLVESGGGLIQPGGSLRLSCAASGFTVSSNYMSWVRQAPGKGLEWVSVTYSGGSTSYADSVKGRFTISRDNSKNTLYLQMNSLRAEDTAVYYCARGGRYCSSISCYARSGCDYWGQGTLVTVSS
VL: AIQMTQSPSSLSASVGDRVTITCRASQSISNYLNWYQQKPGKAPKLLIYAASSLQSGVPSRFSGSGSGTDFTLTISSLQPEDFATYYCQQSYSSPSTTFGQGTKLEIK
In the case of B1, the Inhibition of binding (%) [18] is reported as 6.3%, the % inhibition of TSH-biotin binding [19] is reported as 35.7% and the % inhibition of TSH-biotin binding [20] is reported as 91.2%. For the same molecule, the Inhibition of binding (%) [21] was 4.1%, the Inhibition of binding (%) [22] was 4.4% and the Inhibition of binding (%) [23] was 28.5%. The Inhibition of binding (%) [24] was 37.4%, the % inhibition of TSH-biotin binding [25] was 36.3% and the Inhibition of binding (%) [26] was 13.2%. It also gave an Inhibition of binding (%) [27] of 7.8%.
